Biological target: Klp5-3FLAG (fission yeast) (UniProt O14343)
Experiment: co-IP; protein extracts (4 mg or 8 mg) of metaphase-arrested cut9-665 cells (36°C, 2.5 hours) added to protein A Dynabeads coated with anti-Flag antibodies; blotted with anti-Flag and anti-Myc

UniProt O14343, sequence (O14343 whole entry): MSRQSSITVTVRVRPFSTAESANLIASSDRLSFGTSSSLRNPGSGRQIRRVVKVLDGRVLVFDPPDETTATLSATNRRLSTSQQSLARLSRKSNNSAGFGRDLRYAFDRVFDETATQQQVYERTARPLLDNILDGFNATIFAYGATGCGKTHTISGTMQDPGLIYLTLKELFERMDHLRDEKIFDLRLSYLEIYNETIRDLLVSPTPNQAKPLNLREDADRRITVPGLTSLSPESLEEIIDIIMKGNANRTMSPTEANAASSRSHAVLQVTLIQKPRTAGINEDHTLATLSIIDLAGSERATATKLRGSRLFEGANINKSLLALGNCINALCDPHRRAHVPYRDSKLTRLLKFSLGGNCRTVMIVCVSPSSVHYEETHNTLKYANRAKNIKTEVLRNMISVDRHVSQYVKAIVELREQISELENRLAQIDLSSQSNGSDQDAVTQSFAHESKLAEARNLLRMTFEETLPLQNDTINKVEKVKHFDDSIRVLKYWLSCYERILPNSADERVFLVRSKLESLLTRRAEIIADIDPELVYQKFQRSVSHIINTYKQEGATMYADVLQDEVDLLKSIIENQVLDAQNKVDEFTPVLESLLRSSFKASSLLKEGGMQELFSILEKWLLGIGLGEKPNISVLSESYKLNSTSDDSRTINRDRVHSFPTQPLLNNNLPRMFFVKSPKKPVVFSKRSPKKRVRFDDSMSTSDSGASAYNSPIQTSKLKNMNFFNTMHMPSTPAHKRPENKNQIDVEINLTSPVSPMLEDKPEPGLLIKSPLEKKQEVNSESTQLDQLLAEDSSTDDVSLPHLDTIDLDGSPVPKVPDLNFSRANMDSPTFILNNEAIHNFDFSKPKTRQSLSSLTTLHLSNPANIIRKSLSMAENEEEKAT

Alp7-LA6-Myc (from UniProt Q9URY2 1-474) (natural protein)
reduction of binding compared to Alp7: > 70%

— paper PMC4294777
